“And” between values parts separate entries of the source, which are not always exact repeats. Identical values can stand only once. Marks after values point to notes of the source that are not given here. Non-standard residues stand in square brackets, D forms with d. Residues, ends and D or L forms follow the SMILES beside them. Primed or numbered codes have the meaning given here. *: point of attachment. Doxorubicin(3'-N) = COc1cccc2c1C(=O)c1c(O)c3c(c(O)c1C2=O)C[C@@](O)(C(=O)CO)C[C@@H]3O[C@H]1C[C@H](N*)[C@H](O)[C@H](C)O1; PEG(1) = polyethylene glycol containing substituent with 1 ethyleneoxy subunit; Decanoyl(3,6,9-trioxa) = COCCOCCOCC(=O)*; hArg = N=C(N)NCCCC[C@H](N)C(=O)O; Chg = N[C@H](C(=O)O)C1CCCCC1; Glycolyl = O=C(CO)*

This note sets out measurements from patent publication US6391305B1, “Conjugates useful in the treatment of prostate cancer” (priority 1999, dated 2002).

Assay [1] deals with LNCap prostate tumor cells. The assay is described as follows: In vitro cytotoxicity, Alamar Blue assay, LNCaP. Format: cell-based. As to conditions: 72 HRS, read-out: LNCaP Cell Kill in 72 HRS, {48 HRS} EC 50. How it is done: The cytotoxicities of the cleaveable oligopeptide-doxorubicin conjugates, prepared as described in Examples 3-6, against a line of cells which is known to be killed by unmodified doxorubicin was assessed with an Alamar Blue assay. Specifically, cell cultures of LNCap prostate tumor cells or DuPRO cells in 96 well plates was diluted with medium containing various concentrations of a given conjugate (final plate well volume of 200 μl ). The cells were incubated for 3 days at 37° C., 20 μl of Alamar Blue is added to the assay well. The cells were further incubated and the assay plates were read on a EL-310 ELISA reader at the dual wavelengths of 570 and 600 nm at 4 and 7 hours after addition of Alamar Blue. Relative percentage viability at the various concentration of conjugate tested was then calculated versus control (no conjugate) cultures. If no salt is indicated, the free conjugate was tested.
A general note: The colour change of resazurin is a common sign of viable cells or microbes.

Assay [2] has as its target T1, enzymatically active free PSA (Homo sapiens, UniProt P07288).
T1 construct: required for 50% cleavage of the noted oligopeptides with enzymatically active free PSA
The assay is described as follows: Recognition (cleavage) of oligopeptide-doxorubicin conjugates by free PSA, HPLC. Format: biochemical. As to conditions: DOX conjugate; 3 hours. How it is done:
If no salt is indicated for the conjugate, the free conjugate was tested.

Assay [3] has as its target T1, enzymatically active free PSA. In kind it is biochemical. As to conditions: oligopeptide; for Time to 50% Substrate Cleavage by York PSA: PSA digestion buffer pH8.0, molar ratio to PSA 100 to 1. How it is done: All other oligopeptides were tested as neutral compounds.

T1 sequence (P07288 25-261): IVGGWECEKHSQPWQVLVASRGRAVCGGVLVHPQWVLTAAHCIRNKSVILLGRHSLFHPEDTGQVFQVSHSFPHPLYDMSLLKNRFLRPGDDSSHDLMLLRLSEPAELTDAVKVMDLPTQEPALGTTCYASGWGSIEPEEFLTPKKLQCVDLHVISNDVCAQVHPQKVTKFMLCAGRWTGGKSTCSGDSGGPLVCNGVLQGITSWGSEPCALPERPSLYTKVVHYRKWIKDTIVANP

With `COc1cccc2c1C(=O)c1c(O)c3c(c(O)c1C2=O)C[C@@](O)(C(=O)CO)C[C@@H]3O[C@H]1C[C@H](NC(=O)[C@H](CC(C)C)NC(=O)[C@H](CO)NC(=O)[C@H](CO)NC(=O)[C@H](CO)NC(=O)[C@H](CCC(N)=O)NC(=O)[C@H](Cc2ccc(O)cc2)NC(=O)[C@H](CO)NC(=O)CO)[C@H](O)[C@H](C)O1` [2-hydroxyacetyl-SYQ-SSSL-DOX (3′), 2-hydroxyacetyl-SerTyrGln-SerSerSerLeu-DOX (3′)] (Glycolyl-SYQSSSL-{Doxorubicin(3'-N)}), the EC50 in assay [1] was 18.8 µM.
For the molecule “PEG(2)-SerSerSerChgGln-Ser(dLeu)-DOX (3′) ({Decanoyl(3,6,9-trioxa)}-SSS[Chg]QS[dL]-{Doxorubicin(3'-N)}; also: DOX attached at 3′) [PEG(2)-SSSChgQ-S(dL)-DOX (3′)]”, the “Substrate cleavage by York PSA at 3 HOUR” value in assay [2] is given as 46%.
On to `COCCOCCOCC(=O)N[C@@H](CCCCN)C(=O)N[C@@H](Cc1ccc(O)cc1)C(=O)N[C@@H](CCC(N)=O)C(=O)N[C@@H](CO)C(=O)N[C@@H](CO)C(=O)N[C@@H](CO)C(=O)N[C@@H](CC(C)C)C(=O)N[C@H]1C[C@H](O[C@H]2C[C@](O)(C(=O)CO)Cc3c(O)c4c(c(O)c32)C(=O)c2c(OC)cccc2C4=O)O[C@@H](C)[C@H]1O` [PEG(2)-KYQ-SSSL-DOX (3′), PEG(2)-LysTyrGln-SerSerSerLeu-DOX (3′)] ({Decanoyl(3,6,9-trioxa)}-KYQSSSL-{Doxorubicin(3'-N)}), for which the EC50 in assay [1] was found to be 12.8 µM.
Turning to `COc1cccc2c1C(=O)c1c(O)c3c(c(O)c1C2=O)C[C@@](O)(C(=O)CO)C[C@@H]3O[C@H]1C[C@H](NC(=O)[C@H](CC(C)C)NC(=O)[C@H](CO)NC(=O)[C@H](CCC(N)=O)NC(=O)[C@@H](NC(=O)[C@H](CO)NC(=O)[C@H](C)NC(=O)[C@H](CCCCNC(=N)N)NC(=O)CO)C2CCCCC2)[C@H](O)[C@H](C)O1` [2-hydroxyacetyl-HomoRASChgQ-SL-DOX (3′), 2-hydroxyacetyl-hArgAlaSerChgGln-SerLeu-DOX (3′)] (Glycolyl-[hArg]AS[Chg]QSL-{Doxorubicin(3'-N)}), the EC50 in assay [1] was determined as 7.9 µM.
In the case of “PEG(2)-S-hRChgQ-SL-acid: blocked oligopeptide with PSA cleavage site, Example 1 ({Decanoyl(3,6,9-trioxa)}-S[hArg][Chg]QSL-OH)”, the “Time to 50% Substrate Cleavage by York PSA” value in assay [3] was 30 min.
Take “Ac-hRASChgQ-SL-acid: blocked oligopeptide with PSA cleavage site, Example 1 (Ac-[hArg]AS[Chg]QSL-OH; SMILES CC(=O)N[C@@H](CCCCNC(=N)N)C(=O)N[C@@H](C)C(=O)N[C@@H](CO)C(=O)N[C@H](C(=O)N[C@@H](CCC(N)=O)C(=O)N[C@@H](CO)C(=O)N[C@@H](CC(C)C)C(=O)O)C1CCCCC1)”: the “Time to 50% Substrate Cleavage by York PSA” value in assay [3] is 50 min.
For the molecule “PEG(1)-ShRChgQ-SL-acid: blocked oligopeptide with PSA cleavage site, Example 1 ({PEG(1)}-S[hArg][Chg]QSL-OH)”, the “Time to 50% Substrate Cleavage by York PSA (Min), values marked *” value in assay [3] (asterisk not explained in Table 2) is given as 120* Min.
On to “Ac-ANKASYQ-SL-acid: blocked oligopeptide with PSA cleavage site, Example 1 (chain 1 Ac-ANKASYQSL-OH; chain 2 Ac-ANKASYQSL-OH)”, for which the “Time to 50% Substrate Cleavage by York PSA” value in assay [3] was 135 min and 220 min.
With “2,3-dihydroxypropionyl-GSSChgQ-SL-acid: blocked oligopeptide with PSA cleavage site, Example 1 ({2,3‑dihydroxypropionyl}-GSS[Chg]QSL-OH)”, the “Time to 50% Substrate Cleavage by York PSA” value in assay [3] stood at 160 min.
